Data published in patent US20170183415A1 (published 2017).

T1: immobilized CD123 (UniProt P26951 19-305)
T1 chain: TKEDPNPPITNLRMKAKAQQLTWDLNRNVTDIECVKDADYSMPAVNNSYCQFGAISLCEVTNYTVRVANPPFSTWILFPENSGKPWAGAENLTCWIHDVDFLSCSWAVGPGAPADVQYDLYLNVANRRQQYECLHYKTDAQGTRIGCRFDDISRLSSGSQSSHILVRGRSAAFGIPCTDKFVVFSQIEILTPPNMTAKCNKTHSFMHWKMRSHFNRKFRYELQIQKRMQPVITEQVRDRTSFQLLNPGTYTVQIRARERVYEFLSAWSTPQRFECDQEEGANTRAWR

B1: parent mouse scFv (anti-CD123, clone 32716) (scFv)
scFv: DIVLTQSPASLAVSLGQRATISCRASESVDNYGNTFMHWYQQKPGQPPKLLIYRASNLESGIPARFSGSGSRTDFTLTINPVEADDVATYYCQQSNEDPPTFGAGTKLELKGGGGSGGGGSSGGGSQIQLVQSGPELKKPGETVKISCKASGYIFTNYGMNWVKQAPGKSFKWMGWINTYTGESTYSADFKGRFAFSLETSASTAYLHINDLKNEDTATYFCARSGGYDPMDYWGQGTSVTVSS
B2: CD123 (receptor)
chain: T1 chain

What was measured:
immobilized CD123 [1] = target: T1, immobilized CD123; test: ELISA; FIG. 30A
immobilized CD123 [2] = target: T1, immobilized CD123; test: ELISA; FIG. 30B
CD123_AC = test: ELISA; FIG. 30A
CD123_CA = test: ELISA; FIG. 30A
CD123_DA = test: ELISA; FIG. 30A
CD123_BD = test: ELISA; FIG. 30A
CD123_AD = test: ELISA; FIG. 30A
CD123_BC = test: ELISA; FIG. 30B

Row | Binder | Kd (immobilized CD123 [1]) [nM] | Kd (immobilized CD123 [2]) [nM] | Kd (CD123_AC) [nM] | Kd (CD123_CA) [nM] | Kd (CD123_DA) [nM] | Kd (CD123_BD) [nM] | Kd (CD123_AD) [nM] | Kd (CD123_BC) [nM]
1 | B1 | 2.56 | 1.04 | – | – | – | – | – | –
2 | B2 | – | – | 1.83 | 10.2 | 2.8 | 1.12 | 1.77 | 3.25
